Article PMC12785156, “Hydroxylation of HPPD facilitates its PUB11-mediated ubiquitination and degradation in response to oxidative stress in Arabidopsis” (Plant Communications, 2025)

T1: full-length MBP-PUB11 (Arabidopsis thaliana, UniProt Q8GUG9 1-612)
T1 construct: U-box E3 ubiquitin ligase PUB11, Arabidopsis thaliana, full-length CDS in pMAL-C2x; not shown: MBP, N-terminal, kept
T1 sequence (looked up): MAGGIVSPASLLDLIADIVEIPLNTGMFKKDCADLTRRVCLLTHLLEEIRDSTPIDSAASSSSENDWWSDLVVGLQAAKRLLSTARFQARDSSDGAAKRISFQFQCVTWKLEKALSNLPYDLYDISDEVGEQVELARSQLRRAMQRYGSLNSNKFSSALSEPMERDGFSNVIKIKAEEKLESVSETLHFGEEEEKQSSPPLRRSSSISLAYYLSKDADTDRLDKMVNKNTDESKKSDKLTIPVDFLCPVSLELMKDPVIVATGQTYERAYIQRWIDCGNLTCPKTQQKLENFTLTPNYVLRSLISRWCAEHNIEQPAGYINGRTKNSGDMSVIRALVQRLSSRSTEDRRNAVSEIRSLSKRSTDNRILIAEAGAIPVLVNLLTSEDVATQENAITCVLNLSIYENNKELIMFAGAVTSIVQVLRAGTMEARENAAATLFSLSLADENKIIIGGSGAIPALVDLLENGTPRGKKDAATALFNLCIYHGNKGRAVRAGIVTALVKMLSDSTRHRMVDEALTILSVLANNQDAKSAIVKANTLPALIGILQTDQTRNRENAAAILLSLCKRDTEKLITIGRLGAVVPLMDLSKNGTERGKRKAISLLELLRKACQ

B1: GST-PUB11-ARM (domain or fragment)
chain: QPAGYINGRTKNSGDMSVIRALVQRLSSRSTEDRRNAVSEIRSLSKRSTDNRILIAEAGAIPVLVNLLTSEDVATQENAITCVLNLSIYENNKELIMFAGAVTSIVQVLRAGTMEARENAAATLFSLSLADENKIIIGGSGAIPALVDLLENGTPRGKKDAATALFNLCIYHGNKGRAVRAGIVTALVKMLSDSTRHRMVDEALTILSVLANNQDAKSAIVKANTLPALIGILQTDQTRNRENAAAILLSLCKRDTEKLITIGRLGAVVPLMDLSKNGTERGKRKAISLLELLRKACQ
modifications: GST carrier omitted. Limits not printed: ARM region taken as everything after the U-box (240-314) to the C-terminus
B2: His-AtHPPD (Arabidopsis thaliana 4-hydroxyphenylpyruvate dioxygenase) (enzyme, UniProt P93836 1-445, looked up)
chain: MGHQNAAVSENQNHDDGAASSPGFKLVGFSKFVRKNPKSDKFKVKRFHHIEFWCGDATNVARRFSWGLGMRFSAKSDLSTGNMVHASYLLTSGDLRFLFTAPYSPSLSAGEIKPTTTASIPSFDHGSCRSFFSSHGLGVRAVAIEVEDAESAFSISVANGAIPSSPPIVLNEAVTIAEVKLYGDVVLRYVSYKAEDTEKSEFLPGFERVEDASSFPLDYGIRRLDHAVGNVPELGPALTYVAGFTGFHQFAEFTADDVGTAESGLNSAVLASNDEMVLLPINEPVHGTKRKSQIQTYLEHNEGAGLQHLALMSEDIFRTLREMRKRSSIGGFDFMPSPPPTYYQNLKKRVGDVLSDDQIKECEELGILVDRDDQGTLLQIFTKPLGDRPTIFIEIIQRVGCMMKDEEGKAYQSGGCGGFGKGNFSELFKSIEEYEKTLEAKQLVG
notes: 4-hydroxyphenylpyruvate dioxygenase (AtHPPD), Arabidopsis thaliana, full-length CDS in pET-15b; For MST the His tag was labelled with RED-tris-NTA 2nd generation dye; A low level of self-hydroxylation of phenylalanines is reported also for the untreated protein; also called AtHPPD-WT; His-labeled AtHPPD; source: E. coli BL21(DE3), purified; not shown: His6, N-terminal, kept

How the values were obtained:
[1] = target: B2; test: MST; His-AtHPPD (or mutants) labelled with RED-tris-NTA 2nd generation, constant 400 nM; GST-PUB11-ARM serially diluted; 25°C; 20 mM HEPES pH 8.0, 100 mM NaCl; three repeats; conditions: both partners purified
[2] = target: T1, full-length MBP-PUB11; test: pull-down; purified MBP-PUB11 full length or truncated variants (or MBP alone) with purified His-AtHPPD, 4°C; immunoblot with anti-His and anti-MBP; conditions: both partners purified

Kd [1] [µM]	binding result [2]	Binder
7.42		B1
	binds	B2
